The values below come from publication PMC3229572.

The target in this assay is recombinant full length M2 protein of influenza virus A/Hong Kong/8/68 (H3N2) (influenza A virus A/Hong Kong/8/68 (H3N2)).

Several values for one entry are separate records, joined by “and”; a condition that tells them apart may be missing. Identical values can stand only once.

What is called stoichiometry N is a count of units in the complex or per binding partner. Regarding “recombinant full length M2 protein of influenza virus A/Hong Kong/8/68 (H3N2) (natural protein)”, the stoichiometry N is 4 and 8.
